The values below are quoted from earlier work in publication PMC4440831 (Chembiochem : a European journal of chemical biology, 2015).

The target in the series is CXCR4 receptor (Homo sapiens, UniProt P61073). Conditions: earlier work of the same group.
Sequence of CXCR4 receptor (P61073 whole entry): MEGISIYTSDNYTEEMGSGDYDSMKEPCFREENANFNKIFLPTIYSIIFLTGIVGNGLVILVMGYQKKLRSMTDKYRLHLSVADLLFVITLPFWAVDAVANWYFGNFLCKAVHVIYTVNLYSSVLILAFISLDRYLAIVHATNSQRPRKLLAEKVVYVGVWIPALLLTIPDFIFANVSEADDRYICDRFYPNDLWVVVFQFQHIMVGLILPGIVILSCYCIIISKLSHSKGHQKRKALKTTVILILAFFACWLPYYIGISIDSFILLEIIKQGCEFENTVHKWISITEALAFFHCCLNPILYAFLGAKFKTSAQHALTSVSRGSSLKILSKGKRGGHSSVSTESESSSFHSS

In the case of “MCoTI-I: empty scaffold cyclotide (SGSDGGVCPKILQRCRRDSDCPGACICRGNGYCG; not fully specified; Trypsin inhibitor 1; UniProt P82408 1-34, looked up)”, the “CXCR4 inhibitory activity, result in words” value is recorded as “no inhibitory activity”.
